For eight sequences, Kd and IC50 results are on record in the Immune Epitope Database (IEDB).

One assay deals with HLA-B*15:02. Nature of the assay: IEDB peptide-MHC binding, purified MHC/competitive/fluorescence; filed as Kd, often an IC50 or EC50 that approximates it; ≥ and ≤ were set here for values at or beyond the usual limits of such assays. The settings on record: source organism: Vibrio cholerae 2740-80.
The target in assay [1] is HLA-A*69:01. Described as above. The settings on record: source organism: Encephalitozoon cuniculi GB-M1.
The target of assay [2] is HLA-A*02:16. The assay is described as above. The settings on record: source organism: Encephalitozoon cuniculi GB-M1.
The next assay addresses HLA-A*02:50. Described as above.
The target of assay [3] is HLA-A*02:11. Described as above. The conditions noted are these: source organism: Encephalitozoon cuniculi GB-M1.
Assay [4] concerns the target HLA-A*02:06. The assay is described as above. The conditions noted are these: source organism: Encephalitozoon cuniculi GB-M1.
The target of assay [5] is HLA-A*02:01. Described as above. The conditions noted are these: source organism: Encephalitozoon cuniculi GB-M1.
Assay [6] addresses HLA-A*02:12. The description is as above. The conditions noted are these: source organism: Encephalitozoon cuniculi GB-M1.
The target in a further assay is HLA-A*02:03. The description is as above. The settings on record: source organism: Encephalitozoon cuniculi GB-M1.
The target in assay [7] is HLA-A*02:19. Described as above. The conditions noted are these: source organism: Encephalitozoon cuniculi GB-M1.
The target in assay [8] is HLA-A*24:02. Described as above.
Assay [9] addresses HLA-A*69:01. Nature of the assay: IEDB peptide-MHC binding, purified MHC/direct/fluorescence; filed as Kd, often an IC50 or EC50 that approximates it; ≥ and ≤ were set here for values at or beyond the usual limits of such assays. The settings on record: source organism: Entamoeba histolytica HM-1:IMSS.
A further assay concerns the target HLA-A*29:02. The assay is described as above. The conditions noted are these: source organism: Entamoeba histolytica HM-1:IMSS.
The next assay addresses HLA-B*39:01. The assay is described as above.
For the next assay, the target named is HLA-B*15:17. The assay is described as above. The settings on record: source organism: Entamoeba histolytica HM-1:IMSS.
Assay [10] addresses HLA-A*02:16. The assay is described as above.
Another assay deals with HLA-B*57:01. Described as above.
In the next assay the target is HLA-B*27:03. Described as above.
Assay [11] deals with HLA-A*02:11. The assay is described as above.
The next assay concerns the target HLA-A*03:01. Described as above.
In assay [12] the target is HLA-A*02:06. Described as above.
In a further assay the target is HLA-A*26:01. Described as above.
Assay [13] deals with HLA-A*02:01. Described as above.
Assay [14] concerns the target HLA-A*02:12. Described as above.
The target of another assay is HLA-B*51:01. The description is as above. The conditions noted are these: source organism: Entamoeba histolytica HM-1:IMSS.
Assay [15] concerns the target HLA-A*02:19. Described as above.
The target in the next assay is HLA-A*24:03. The description is as above. The settings on record: source organism: Entamoeba histolytica HM-1:IMSS.
The target in another assay is HLA-B*46:01. Described as above.
Assay [16] concerns the target HLA-A*24:02. Nature of the assay: IEDB peptide-MHC binding, purified MHC/competitive/fluorescence; ≥ and ≤ were set here for values at or beyond the usual limits of such assays. The conditions noted are these: source organism: West Nile virus.
A further assay deals with HLA-B*45:06. In words: IEDB peptide-MHC binding, purified MHC/competitive/fluorescence; filed as Kd, often an IC50 or EC50 that approximates it; ≥ and ≤ were set here for values at or beyond the usual limits of such assays. The settings on record: source organism: Bacillus anthracis str. A0488.
For another assay, the target named is HLA-A*32:15. Described as above. The conditions noted are these: source organism: Bacillus anthracis str. A0488.
For another assay, the target named is HLA-B*15:42. Described as above. The settings on record: source organism: Bacillus anthracis str. A0488.
Another assay concerns the target HLA-B*83:01. The description is as above. The settings on record: source organism: Bacillus anthracis str. A0488.
The target of the next assay is HLA-C*14:02. The description is as above. The settings on record: source organism: Bacillus anthracis str. A0488.
The target in a further assay is HLA-B*18:01. In words: IEDB peptide-MHC binding, purified MHC/direct/fluorescence; filed as Kd, often an IC50 or EC50 that approximates it; ≥ and ≤ were set here for values at or beyond the usual limits of such assays. The conditions noted are these: source organism: Bacillus anthracis str. Sterne.
A further assay deals with HLA-B*15:01. The description is as above.
The next assay concerns the target HLA-B*07:02. The description is as above. The settings on record: source organism: Salmonella enterica.
A further assay deals with HLA-B*08:01. The assay is described as above. The settings on record: source organism: Salmonella enterica subsp. enterica serovar Typhimurium str. LT2.
In a further assay the target is HLA-B*40:01. Described as above. The settings on record: source organism: Salmonella enterica.
Another assay addresses HLA-B*44:02. Described as above. The settings on record: source organism: Salmonella enterica.
The next assay addresses HLA-B*58:01. The assay is described as above. The settings on record: source organism: Salmonella enterica.
In another assay the target is HLA-B*27:05. The description is as above.
A further assay has as its target HLA-B*48:01. Described as above. The conditions noted are these: source organism: Giardia lamblia ATCC 50803.
Another assay deals with HLA-B*73:01. The description is as above. The settings on record: source organism: Giardia lamblia ATCC 50803.
[17] abbreviates: source organism: Entamoeba histolytica HM-1:IMSS.
Where [18] appears, read: source organism: Bacillus anthracis str. Sterne.
[19] abbreviates: source organism: Salmonella enterica subsp. enterica serovar Typhimurium str. LT2.
Setting [20] is: source organism: Salmonella enterica.

What is called pKd is −log10 of the Kd, conventionally taken in molar units. A word on the pIC50: it is the IC50 on a negative log10 scale, so that one unit is a factor of ten. A higher pIC50 goes with a small IC50.

pIC50, pKd: −log10 of the molar value.

Consider GMRVLGTNY, for which the pKd in the assay with HLA-B*15:02 was 6.64.
On to GVYGGLCLA, for which the pKd with HLA-A*69:01 [1] is 6.37; in the assay with HLA-A*02:16 [2], not below 9.00; with HLA-A*02:50 (source organism: Encephalitozoon cuniculi GB-M1), 9.52; in the assay with HLA-A*02:11 [3], not below 9.00; with HLA-A*02:06 [4], not below 9.00; with HLA-A*02:01 [5], 8.60. For the same sequence, the pKd in the assay with HLA-A*02:12 [6] is 6.91; with HLA-A*02:03 it was 8.80; with HLA-A*02:19 [7] it was 6.31.
Sequence KTHIHIFSF had a pKd in the assay with HLA-A*24:02 [8] (source organism: Influenza A virus (A/X-31(H3N2))) of 7.07.
As to RQRHYFDSA, the pKd in the assay with HLA-A*69:01 [9], with HLA-A*29:02, in the assay with HLA-B*39:01 (setting [17]), with HLA-B*15:17, with HLA-A*02:16 [10] (setting [17]) and with HLA-B*57:01 (setting [17]) was not above 4.70 throughout. The pKd with HLA-B*27:03 (setting [17]) is not above 4.70; with HLA-A*02:11 [11] (setting [17]) it was not above 4.70; with HLA-A*03:01 (setting [17]), not above 4.70; with HLA-A*02:06 [12] (setting [17]) it was 8.40; with HLA-A*26:01 (setting [17]), not above 4.70; with HLA-A*02:01 [13] (setting [17]), 5.15. In addition, the negative-log Kd (pKd) with HLA-A*02:12 [14] (setting [17]), with HLA-B*51:01, in the assay with HLA-A*02:19 [15] (setting [17]), with HLA-A*24:03 and with HLA-B*46:01 (setting [17]) was not above 4.70 in each case.
In the assay with HLA-A*24:02 [8] (source organism: West Nile virus), RYLVKTESW showed a pKd of 9.40. The sequence also showed a pIC50 with HLA-A*24:02 [16] of 6.58.
With TTYVYTLPV, the pKd with HLA-B*45:06 is not above 5.30; in the assay with HLA-A*32:15, 6.43; in the assay with HLA-B*15:42, not above 5.30; with HLA-B*83:01 it was not above 5.30; in the assay with HLA-C*14:02, 8.46; in the assay with HLA-B*39:01 (setting [18]), not above 4.70. For the same sequence, the pKd was not above 4.70 with HLA-B*18:01; not above 4.70 with HLA-B*57:01 (setting [18]); not above 4.70 with HLA-B*15:01 (setting [18]); not above 4.70 with HLA-B*27:03 (setting [18]); not above 4.70 in the assay with HLA-A*26:01 (setting [18]); 7.05 with HLA-A*02:01 [13] (setting [18]). The sequence also had a pKd in the assay with HLA-B*46:01 (setting [18]) not above 4.70.
Take WTLETLPRV: the pKd is 8.03 with HLA-A*02:50 (source organism: Salmonella enterica subsp. enterica serovar Typhi); not above 4.70 with HLA-B*07:02; not above 4.70 in the assay with HLA-B*08:01; not below 9.00 with HLA-A*02:16 [10] (setting [19]); not above 4.70 with HLA-B*40:01; not above 4.70 in the assay with HLA-B*15:01 (setting [20]). Further, the negative logarithm of the Kd (pKd) was not below 9.00 with HLA-A*02:11 [11] (setting [19]); not above 4.70 with HLA-A*03:01 (setting [20]); not below 9.00 in the assay with HLA-A*02:06 [12] (setting [19]); 7.54 in the assay with HLA-A*02:01 [13] (setting [20]); not below 9.00 in the assay with HLA-A*02:12 [14] (setting [19]); 8.40 in the assay with HLA-A*02:19 [15] (setting [19]). The pKd with HLA-B*46:01 (setting [20]), with HLA-B*44:02, in the assay with HLA-B*58:01 and in the assay with HLA-B*27:05 (setting [20]) was not above 4.70 each time.
Turning to YRYKMPVME, the results for the pKd in the assay with HLA-B*48:01, in the assay with HLA-B*73:01 and with HLA-B*27:05 (source organism: Giardia lamblia ATCC 50803) were not above 4.70, 5.79 and 6.91, respectively.
